# Positions count from the first letter of the chain named.
# B1: rePON1-192Q: recombinant PON1 with glutamine at position 192, generated to mimic the human Q isozyme (protein)
# chain: MAKLTALTLLGLGLALFDGQKSSFQTRFNVHREVTPVELPNCNLVKGVDNGSEDLEILPNGLAFISSGLKYPGIMSFDPDKSGKILLMDLNEEDPVVLELGITGNTLDISSFNPHGISTFTDEDNTVYLLVVNHPDSSSTVEVFKFQEEEKSLLHLKTIRHKLLPSVNDIVAVGPEHFYATNDHYFADPYLQSWEMHLGLAWSFVTYYSPNDVRVVAEGFDFANGINISPDGKYVYIAELLAHKIHVYEKHANWTLTPLKSLDFDTLVDNISVDPVTGDLWVGCHPNGMRIFYYDPKNPPGSEVLRIQDILSEEPKVTVVYAENGTVLQGSTVAAVYKGKLLIGTVFHKALYCEL
# modifications: rePON1-192Q isozyme
# notes: recombinant PON1 with glutamine at position 192, generated to mimic the human Q isozyme
# B2: rePON1-192R: recombinant PON1 with arginine at position 192, generated to mimic the human R isozyme (protein)
# chain: B1 chain with Q192R
# modifications: rePON1-192R isozyme
# notes: recombinant PON1 with arginine at position 192, generated to mimic the human R isozyme
# B3: wt Δ20-rePON1-192K: truncated rePON1 variant lacking the first 20 amino acids of the hydrophobic N-terminus, 192K (protein)
# chain: MAKSSFQTRFNVHREVTPVELPNCNLVKGVDNGSEDLEILPNGLAFISSGLKYPGIMSFDPDKSGKILLMDLNEEDPVVLELGITGNTLDISSFNPHGISTFTDEDNTVYLLVVNHPDSSSTVEVFKFQEEEKSLLHLKTIRHKLLPSVNDIVAVGPEHFYATNDHYFADPYLKSWEMHLGLAWSFVTYYSPNDVRVVAEGFDFANGINISPDGKYVYIAELLAHKIHVYEKHANWTLTPLKSLDFDTLVDNISVDPVTGDLWVGCHPNGMRIFYYDPKNPPGSEVLRIQDILSEEPKVTVVYAENGTVLQGSTVAAVYKGKLLIGTVFHKALYCEL
# modifications: Delta20-rePON1-192K isozyme
# notes: truncated rePON1 variant lacking the first 20 amino acids of the hydrophobic N-terminus, 192K
# B4: Δ20-rePON1-192Q: truncated rePON1 variant lacking the first 20 N-terminal amino acids, 192Q isozyme (protein)
# chain: B3 chain with K174Q
# modifications: Delta20-rePON1-192Q isozyme
# notes: truncated rePON1 variant lacking the first 20 N-terminal amino acids, 192Q isozyme
# B5: Δ20-rePON1-192R: truncated rePON1 variant lacking the first 20 N-terminal amino acids, 192R isozyme (protein)
# chain: B3 chain with K174R
# modifications: Delta20-rePON1-192R isozyme
# notes: truncated rePON1 variant lacking the first 20 N-terminal amino acids, 192R isozyme
# Columns and labels:
# apoA-I rHDL [1] = test: Inactivation kinetics of rePON1 192 isozymes bound to rHDL-apoA-I (EDTA/β-mercaptoethanol, residual phenyl acetate hydrolysis); format: biochemical; conditions: for A2 (%) (amplitude of second, slow inactivation phase = HDL-bound fraction) / k1^inactiv (first, fast phase) / k2^inactiv (second, slow phase): apoA-I rHDL, 50-fold molar excess, EDTA and β-mercaptoethanol, 37° C.; for A2 (amplitude) (%): as printed in Table 2 beside the SPR constants of the Δ20 variants
# Experimental: (§1) FIG. 1 is a graph showing the inactivation kinetics of the wild-type rePON1-192K (SEQ ID NO:2), -192R (SEQ ID NO:4) and -192Q (SEQ ID NO:6) isozymes, bound to rHDL-apoA-I, or in buffer. Delipidated enzymes were incubated with a 50-fold excess of rHDL-apoA-I, or in activity buffer, and subjected to inactivation in the presence of EDTA (5 mM) and β-mercaptoethanol (10 mM) at 37° C. Residual activity at various time points was determined by initial rates of phenyl acetate hydrolysis (2 mM) and plotted as percent of the activity at time zero. Data were fitted to a single exponential for wild-type rePON1-192K on rHDL-apoA-I, and to double-exponentials for the remaining samples. The inactivation rate constants and amplitudes were derived from this fit;
# (§2) Inactivation rates of rePON1s were measured as described [Gaidukov, L. and D. S. Tawfik, Biochemistry, 2005. 44(35): p. 11843-54]. Briefly, rePON1 samples were delipidated using Bio-Beads SM-2 (BioRad) and incubated in buffer, or with 50-fold molar excess of rHDL-apoA-I. EDTA (10 mM) and β-mercaptoethanol (20 mM) were added, and samples were incubated at 37° C. Residual activity at different time points was determined with 2 mM phenyl acetate, and inactivation rates were fitted to either mono- or double-exponentials [Gaidukov, L. and D. S. Tawfik, Biochemistry, 2005. 44(35): p. 11843-54].
# (§3) The resultant inactivation profiles of wt rePON1 (SEQ ID NO: 2), rePON1-192Q (SEQ ID NO: 6) and rePON1-192R (SEQ ID NO: 4), were fitted to exponential curves as illustrated in FIG. 1.
# [2] = Inactivation kinetics of rePON1 192 isozymes in activity buffer; format: biochemical; conditions: EDTA and β-mercaptoethanol, 37° C.
# Experimental: as §1, §2, §3
# apoA-I rHDL [3] = test: Stimulation of enzymatic activity of rePON1 192 isozymes by rHDL-apoA-I; format: biochemical; conditions: for reduction of Vmax compared to wt rePON1-192K: all the substrates tested; for Vmax (%) activation factor: relative to delipidated enzyme (100%)
# Excerpt: The activity is presented in relation to the initial activity of the delipidated enzymes (percentage of stimulation). Data were fitted to the Langmuir saturation curve, from which the activation factor (Vmax) and the apparent affinity (Kapp) were derived;
# Stimulated activity is presented as the percentage of the initial activity of the delipidated enzymes (corresponds to 100%). Data were fitted to the Langmuir saturation curve, from which the activation factor (Vmax) and the apparent affinity (Kapp) were derived;
# Delipidated rePONs at 0.2 μM were incubated with a range of rHDL concentrations (0.1-10 μM) for 3 hrs at 37° C. Enzymatic activity was determined in activity buffer (50 mM Tris pH 8.0, 1 mM CaCl2) with substrates at 1 mM concentrations as described [Gaidukov, L. and D. S. Tawfik, Biochemistry, 2005. 44(35): p. 11843-54]. 5-(thiobutyl)-butyrolactone (TBBL) was applied at 0.25 mM, and product formation was monitored spectrophotometrically at 412 nm using 5,5′-dithio-bis-2-nitrobenzoic acid (DTNB) as described [Khersonsky, O. and D. S. Tawfik, Chembiochem, 2006. 7(1): p. 49-53].
# Stimulation of the enzymatic activity was examined by incubating rePON1 isozymes with a range of rHDL concentrations (at the HDL/PON ratio of 0.5-50), and measuring the catalytic activity with various substrates as detailed hereinabove. FIGS. 3A-B illustrate the enzymatic activity of the rePON1 isozymes with δ-nonanoic lactone as substrate (FIG. 3A) and thiobutyl butiryl lactone (TBBL) as substrate (FIG. 3B). FIGS. 4A-D illustrate the enzymatic activity of the rePON1 isozymes with γ-dodecanoic lactone as substrate (FIG. 4A), δ-valerolactone as substrate (FIG. 4B), phenyl acetate as substrate (FIG. 4C) and paraoxon as substrate (FIG. 4D). Data were fitted to the Langmuir saturation curve to give the activation factor Vmax (in percent relative to the delipidated PON1) and the apparent affinity Kapp.
# apoA-I rHDL [4] = test: Surface plasmon resonance binding of Δ20-rePON1 192 isozymes to immobilized rHDL-apoA-I; conditions: for Kd / koff / kon: SPR, 25° C., biotinylated rHDL-apoA-I on streptavidin chip
# Experimental: FIGS. 2A-C are sensorgrams for the binding of wt Δ20-rePON1-192K—SEQ ID NO:8 (FIG. 2A), Δ20-rePON1-192R—SEQ ID NO:10 (FIG. 2B) and Δ20-rePON1-192Q—SEQ ID NO:12 (FIG. 2C) isozymes to rHDL-apoA-I. Biotinylated rHDL-apoA-I particles were immobilized onto the streptavidin surface (SA chip), and a series of PON1 concentrations were injected over the immobilized and blank surfaces to obtain the net binding response. Binding was performed at 25° C. Association and dissociation phases were fitted to a single exponential, from which kinetic rate constants were derived. PON1 concentrations in all the sensorgrams are (from bottom to top) 25, 40, 60, 80, 100, 150 and 200 nM;
# Surface plasmon resonance (SPR) measurements: rHDL-apoA-I particles containing 0.7% of N-biotinyl-dipalmitoylphosphatidylethanolamine (N-biotynyl-DPPE; Avanti Polar Lipids) were prepared and purified as described [Gaidukov, L. and D. S. Tawfik, Biochemistry, 2005. 44(35): p. 11843-54]. SPR was performed on BIAcore 3000 (Uppsala, Sweden) as described [Gaidukov, L. and D. S. Tawfik, Biochemistry, 2005. 44(35): p. 11843-54]. Briefly, the biotinylated rHDL particles were adsorbed on streptavidin (SA5) chip, and Δ20-rePON1 isozymes were injected over the immobilized and blank surfaces to obtain the net binding response. Binding rate constants were obtained by fitting of association and dissociation phases to single exponentials as described [Gaidukov, L. and D. S. Tawfik, Biochemistry, 2005. 44(35): p. 11843-54].
# The above results were further supported by affinity measurements using surface plasmon resonance. It was previously shown that HDL affinity of the intact rePON1 is very high (sub-nanomolar) and could not be determined accurately using surface plasmon resonance [Gaidukov, L., and Tawfik, D. S. (2005)Biochemistry 44, 11843-11854]. In contrast, binding affinity of the truncated variant lacking the first 20 amino acids of the hydrophobic N-terminus (Δ20-rePON1) could be amply determined. Therefore, the truncated variants of PON1 192 isozymes were prepared and their HDL binding affinities measured. Typical binding sensorgrams between Δ20-rePON1 isozymes and the immobilized HDL particles are portrayed in FIGS. 2A-C, and the derived rate and affinity constants are summarized in Table 2 herein below.
# [5] = substrate γ-dodecanoic lactone 1 mM
# [6] = substrate δ-nonanoic lactone 1 mM
molecule,measurement,setting,value
B1,"A2 (%) (amplitude of second, slow inactivation phase = HDL-bound fraction)",apoA-I rHDL [1],70%
same,"k1^inactiv (first, fast phase)",apoA-I rHDL [1],1.1 h⁻¹
same,"k2^inactiv (second, slow phase)",apoA-I rHDL [1],0.01 h⁻¹
same,"k1^inactiv (first, fast phase)",[2],5.2 h⁻¹
same,"k2^inactiv (second, slow phase)",[2],0.3 h⁻¹
same,reduction of Vmax compared to wt rePON1-192K,apoA-I rHDL [3],50-80%
same,Kapp (apparent affinity for HDL stimulation),apoA-I rHDL [3]; substrate TBBL 0.25 mM,0.5 ± 0.1 µM
same,Vmax (%) activation factor,apoA-I rHDL [3]; substrate TBBL 0.25 mM,340 ± 4%
same,Vmax (%) activation factor,apoA-I rHDL [3]; substrate paraoxon 1 mM,128 ± 1%
same,Kapp (apparent affinity for HDL stimulation),apoA-I rHDL [3]; substrate phenyl acetate 1 mM,0.8 ± 0.1 µM
same,Vmax (%) activation factor,apoA-I rHDL [3]; substrate phenyl acetate 1 mM,165 ± 1%
same,Kapp (apparent affinity for HDL stimulation),apoA-I rHDL [3]; [5],0.6 ± 0.2 µM
same,Vmax (%) activation factor,apoA-I rHDL [3]; [5],382 ± 20%
same,Kapp (apparent affinity for HDL stimulation),apoA-I rHDL [3]; [6],0.6 ± 0.1 µM
same,Vmax (%) activation factor,apoA-I rHDL [3]; [6],778 ± 12%
same,Kapp (apparent affinity for HDL stimulation),apoA-I rHDL [3]; substrate δ-valerolactone 1 mM,1.1 ± 0.1 µM
same,Vmax (%) activation factor,apoA-I rHDL [3]; substrate δ-valerolactone 1 mM,481 ± 7%
B2,"A2 (%) (amplitude of second, slow inactivation phase = HDL-bound fraction)",apoA-I rHDL [1],90%
same,"k1^inactiv (first, fast phase)",apoA-I rHDL [1],0.9 h⁻¹
same,"k2^inactiv (second, slow phase)",apoA-I rHDL [1],0.01 h⁻¹
same,"k1^inactiv (first, fast phase)",[2],5.5 h⁻¹
same,"k2^inactiv (second, slow phase)",[2],0.2 h⁻¹
same,reduction of Vmax compared to wt rePON1-192K,apoA-I rHDL [3],10-30%
same,Kapp (apparent affinity for HDL stimulation),apoA-I rHDL [3]; substrate TBBL 0.25 mM,0.4 ± 0.1 µM
same,Vmax (%) activation factor,apoA-I rHDL [3]; substrate TBBL 0.25 mM,579 ± 6%
same,Vmax (%) activation factor,apoA-I rHDL [3]; substrate paraoxon 1 mM,200 ± 1%
same,Kapp (apparent affinity for HDL stimulation),apoA-I rHDL [3]; substrate phenyl acetate 1 mM,0.8 ± 0.1 µM
same,Vmax (%) activation factor,apoA-I rHDL [3]; substrate phenyl acetate 1 mM,336 ± 4%
same,Kapp (apparent affinity for HDL stimulation),apoA-I rHDL [3]; [5],0.9 ± 0.1 µM
same,Vmax (%) activation factor,apoA-I rHDL [3]; [5],1258 ± 21%
same,Kapp (apparent affinity for HDL stimulation),apoA-I rHDL [3]; [6],1.5 ± 0.1 µM
same,Vmax (%) activation factor,apoA-I rHDL [3]; [6],1351 ± 20%
same,Kapp (apparent affinity for HDL stimulation),apoA-I rHDL [3]; substrate δ-valerolactone 1 mM,1.1 ± 0.1 µM
same,Vmax (%) activation factor,apoA-I rHDL [3]; substrate δ-valerolactone 1 mM,1403 ± 13%
B3,Kd,apoA-I rHDL [4],100 nM
same,koff,apoA-I rHDL [4],(2.0 ± 0.2) × 10^−2 s^−1
same,kon,apoA-I rHDL [4],(2.0 ± 0.3) × 10^5 s^−1 M^−1
same,fold higher HDL binding affinity than the Q isozyme,apoA-I rHDL [4]; relative to the Q isozyme,3 fold
same,A2 (amplitude) (%),apoA-I rHDL [1],100%
B4,Kd,apoA-I rHDL [4],300 nM
same,koff,apoA-I rHDL [4],(4.2 ± 0.2) × 10^−2 s^−1
same,kon,apoA-I rHDL [4],(1.4 ± 0.5) × 10^5 s^−1 M^−1
same,A2 (amplitude) (%),apoA-I rHDL [1],70%
B5,Kd,apoA-I rHDL [4],110 nM
same,koff,apoA-I rHDL [4],(2.9 ± 0.2) × 10^−2 s^−1
same,kon,apoA-I rHDL [4],(2.6 ± 0.3) × 10^5 s^−1 M^−1
same,A2 (amplitude) (%),apoA-I rHDL [1],90%
